Experimental data published in publication PMC12261273, “Refinement and Truncation of DNA Aptamers Based on Molecular Dynamics Simulations: Computational Protocol and Experimental Validation”.

How the values were obtained:
[1] = test system: 33-mer immunodominant gluten (gliadin) peptide; assay: chronoamperometry; conditions: RT (electrochemistry), pH 7.4, PSA-1, B4 and truncations: 1x PBS (10 mM phosphate, 154 mM NaCl), 24nt variants: 10 mM Tris-HCl, 150 mM NaCl, 5 mM KCl
[2] = test system: 33-mer immunodominant gluten (gliadin) peptide; assay: SPR; conditions: RT (electrochemistry), pH 7.4, PSA-1, B4 and truncations: 1x PBS (10 mM phosphate, 154 mM NaCl), 24nt variants: 10 mM Tris-HCl, 150 mM NaCl, 5 mM KCl
[3] = test system: collagen XI 10-mer peptide (non-helical C-telopeptide fragment); assay: chronoamperometry (magnetic beads); conditions: RT (electrochemistry), pH 7.4, PSA-1, B4 and truncations: 1x PBS (10 mM phosphate, 154 mM NaCl), 24nt variants: 10 mM Tris-HCl, 150 mM NaCl, 5 mM KCl
[4] = biological target: T1, prostate specific antigen (PSA) (human, UniProt P07288 25-261); assay: SPR; 5 mM MgCl2; RT (electrochemistry), pH 7.4; PSA-1, B4 and truncations: 1x PBS (10 mM phosphate, 154 mM NaCl); 24nt variants: 10 mM Tris-HCl, 150 mM NaCl, 5 mM KCl, 5 mM MgCl2; Gli1 series: 50 mM Tris-HCl, 250 mM NaCl, 5 mM MgCl2; conditions: protein: native; label: 5' 6FAM; hairpin
[5] = biological target: T1, prostate specific antigen (PSA); assay: chronoamperometry; 5 mM MgCl2; RT (electrochemistry), pH 7.4; PSA-1, B4 and truncations: 1x PBS (10 mM phosphate, 154 mM NaCl); 24nt variants: 10 mM Tris-HCl, 150 mM NaCl, 5 mM KCl, 5 mM MgCl2; Gli1 series: 50 mM Tris-HCl, 250 mM NaCl, 5 mM MgCl2; conditions: protein: native; label: 5' 6FAM; hairpin
[6] = biological target: T1, prostate specific antigen (PSA); assay: chronoamperometry; RT (electrochemistry), pH 7.4; PSA-1, B4 and truncations: 1x PBS (10 mM phosphate, 154 mM NaCl); 24nt variants: 10 mM Tris-HCl, 150 mM NaCl, 5 mM KCl, 5 mM MgCl2; Gli1 series: 50 mM Tris-HCl, 250 mM NaCl, 5 mM MgCl2; conditions: protein: native; label: 5' 6FAM
[7] = biological target: T1, prostate specific antigen (PSA); assay: SPR; RT (electrochemistry), pH 7.4; PSA-1, B4 and truncations: 1x PBS (10 mM phosphate, 154 mM NaCl); 24nt variants: 10 mM Tris-HCl, 150 mM NaCl, 5 mM KCl, 5 mM MgCl2; Gli1 series: 50 mM Tris-HCl, 250 mM NaCl, 5 mM MgCl2; conditions: protein: native; label: 5' 6FAM

T1 sequence (P07288 25-261): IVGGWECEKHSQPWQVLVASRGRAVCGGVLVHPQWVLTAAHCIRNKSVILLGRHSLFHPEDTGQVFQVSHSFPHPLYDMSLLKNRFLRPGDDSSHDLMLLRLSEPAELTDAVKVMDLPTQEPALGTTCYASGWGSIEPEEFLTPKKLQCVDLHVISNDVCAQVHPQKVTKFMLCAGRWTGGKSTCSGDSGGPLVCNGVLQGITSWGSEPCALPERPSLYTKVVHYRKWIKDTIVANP

Molecule: CTAGGCGAAATATAGCTACAACTGTCTGA [Gli1T(1-29)]
- Kd [1]: 86 nM
- Kd [2]: 71 nM

Molecule: TTTTTGACGCAAGAAATTCAGGGCACCTGGAACGACGCGTCGGCT [B4]
- Kd [3]: 147 nM

Molecule: CTAGGCGAAATATAGCTACAACTGTCTGAAGGCACCCAAT [Gli1]
- Kd [1]: 136 nM
- Kd [2]: 155 nM

Molecule: TTTTTATTCAGGGCACCTGGAACGACGCGTCGGCT [B4T(11-40)]
- Kd [3]: 44 nM

B1: 5Ts-24nt (ssDNA)
DNA: TTTTTAATTAAAGCTCGCCATCAAATAGC
- Kd [4]: 545 ± 24 nM
- Kd [5]: 460 ± 64 nM

B2: PSA-1 (ssDNA)
DNA: TTTTTGGACGGTTGCGCTATATTTAACCAAAAGTCTGGATTAACA
- Kd [6]: 348 ± 58 nM
- Kd [7]: 125 ± 21 nM

B3: PSA-1T(15-40) (ssDNA)
DNA: TTTTTTATTTAACCAAAAGTCTGGATTAACA
- Kd [6]: 111 ± 9 nM
- Kd [7]: 130 ± 25 nM

B4: 5Ts-24nt-3Ts (deltaPSap4#5) (ssDNA)
DNA: TTTTTAATTAAAGCTCGCCATCAAATAGCTTT
- Kd [4]: 232 ± 4 nM
- Kd [5]: 152 ± 9 nM
